This is an account of results in publication PMC3660561, “Crystal Structure of DmdD, a Crotonase Superfamily Enzyme That Catalyzes the Hydration and Hydrolysis of Methylthioacryloyl-CoA” (PLoS ONE, 2013).

Substrate in data set [1]: CS/C=C/C(=O)SCCNC(=O)CCNC(=O)[C@H](O)C(C)(C)COP(=O)(O)OP(=O)(O)OC[C@H]1O[C@@H](n2cnc3c(N)ncnc32)[C@H](O)[C@@H]1OP(=O)(O)O
As to the kind of experiment: MeSH release by headspace gas chromatography. Format: biochemical, Ruegeria pomeroyi. To be noted: MeSH release (equivalent to hydration), 100 mM HEPES pH 7.4. The text has this:
MeSH release by headspace gas chromatography on DmdD

Substrate in data set [2]: C/C=C/C(=O)SCCNC(=O)CCNC(=O)[C@H](O)C(C)(C)COP(=O)(O)OP(=O)(O)OC[C@H]1O[C@@H](n2cnc3c(N)ncnc32)[C@H](O)[C@@H]1OP(=O)(O)O
As to the kind of experiment: purified protein. Format: biochemical, Ruegeria pomeroyi. To be noted: hydration, 100 mM HEPES pH 7.4.

Substrate in data set [3]: CC(O)CC(=O)SCCNC(=O)CCNC(=O)[C@H](O)C(C)(C)COP(=O)(O)OP(=O)(O)OC[C@H]1O[C@@H](n2cnc3c(N)ncnc32)[C@H](O)[C@@H]1OP(=O)(O)O
As to the kind of experiment: purified protein. In kind it is biochemical, Ruegeria pomeroyi. To be noted: CoA ester hydrolysis, 100 mM HEPES pH 7.4.

Substrate in data set [4]: CSCCC(=O)SCCNC(=O)CCNC(=O)[C@H](O)C(C)(C)COP(=O)(O)OP(=O)(O)OC[C@H]1O[C@@H](n2cnc3c(N)ncnc32)[C@H](O)[C@@H]1OP(=O)(O)O
As to the kind of experiment: purified protein. Format: biochemical, Ruegeria pomeroyi. To be noted: CoA ester hydrolysis, 100 mM HEPES pH 7.4.

Data set [5] deals with the molecule itself. As to the kind of experiment: crystal structure; wild-type DmdD free enzyme, 1.5 Å; space group P2(1)3, two monomers in the asymmetric unit, hexamer generated by the crystallographic 3-fold axis; crystals from 100 mM Tris pH 8.5, 25% PEG 3350, 200 mM NaCl, 20°C.
Data set [6] concerns the molecule itself. As to the kind of experiment: crystal structure; E121A mutant crystals soaked 48 h with 10 mM MTA-CoA or MMPA-CoA, 1.8 Å; space group P2(1)3, two monomers in the asymmetric unit.

The Km is the substrate concentration at which the rate is half of its maximum. As a reminder, the kcat is the number of substrate molecules converted per active site and unit of time at saturation. The term stoichiometry N denotes the number of molecules, sites or subunits per partner or assembly.

Changes are numbered by the printed parent chain. Names and notes keep the numbering of the source.

B1: Ruegeria pomeroyi DmdD, wild type (enzyme)
chain: MTQDVTSGYSNLDLDLRDNGVCVVTLNRPDKRNALDVATIEELVTFFSTAHRKGVRAVVLTGAGDHFCAGLDLVEHWKADRSADDFMHVCLRWHEAFNKMEYGGVPIIAALRGAVVGGGLELASAAHLRVMDQSTYFALPEGQRGIFTGGGATIRVSDMIGKYRMIDMILTGRVYQGQEAADLGLAQYITEGSSFDKAMELADKIASNLPLTNFAICSAISHMQNMSGLDAAYAEAFVGGIVNTQPAARERLEAFANKTAARVRPNS
notes: DmdD (methylthioacryloyl-CoA hydratase) of Ruegeria pomeroyi, sub-cloned into pET26b; Hexamer (dimer of trimers); The C-terminal His-tag was not cleaved before crystallization; also called wild-type DmdD; free enzyme; not shown: His6, C-terminal, kept
Turning to B1, the Michaelis-Menten constant (Km) in data set [1] was found to be 9.4 ± 2.1 µM; in the data set “purified protein [2]”, 19.0 ± 3.1 µM; in the data set “purified protein [3]”, 119 ± 20 µM; in “purified protein [4]”, 69.0 ± 16.4 µM. Moreover, the turnover number (kcat) in data set [1] stood at 47 ± 3 s⁻¹; in “purified protein [2]”, 42 ± 3 s⁻¹; in the data set “purified protein [3]”, 13.2 ± 1.6 s⁻¹; in the data set “purified protein [4]” it was 0.9 ± 0.1 s⁻¹. Besides, the “stoichiometry N” value in data set [5] was found to be 6.

B2: DmdD (Ruegeria pomeroyi DSS-3; E141A) (protein)
chain: B1 chain with E141A
notes: pET26b, C-terminal hexahistidine tag (not cleaved before crystallization), expressed in E. coli BL21(DE3) Star; homohexamer (dimer of trimers)
With B2, in data set [1], the Km is 63.3 ± 12.0 µM and the kcat was determined as 0.0036 ± 0.0004 s⁻¹.

B3: Ruegeria pomeroyi DmdD E121A mutant (enzyme)
chain: B1 chain with E121A
notes: DmdD (methylthioacryloyl-CoA hydratase) of Ruegeria pomeroyi with the E121A mutation (QuikChange); crystals soaked with MTA-CoA or MMPA-CoA; PDB 4IZB is the wild-type parent; source: E. coli, purified following the same protocol as for the wild-type protein; not shown: His6, C-terminal, kept
In the case of B3, in data set [6], the “stoichiometry N” value is 6.
